From US20170051047A1

Experiments:
[1] = molecular target: Clostridium difficile toxin A (whole toxin A) (Clostridium difficile) (UniProt P16154); test: cell-based or functional assay
[2] = molecular target: Clostridium difficile toxin A (whole toxin A) (Clostridium difficile) (UniProt P16154)

CDA1 (Merck anti-toxin A mAb used as a control) (antibody)
IC50, in vitro toxin A neutralization on Vero cells [1]: 0.347 µg/mL
Kd [2]: 0.624 nM
koff [2]: 0.000291 s⁻¹
kon [2]: 480000 M⁻¹ s⁻¹
